How the values were obtained:
[1] = Circular dichroism, helical content of synthetic peptides; type: physicochemical; details: estimated from ellipticity at 222 nm; 10 mM potassium phosphate pH 7.5, 100 mM KF, 4° C. (FIG. 4B)
Protocol: FIG. 4B: Circular dichroism spectra of Rev34-40 (.box-solid.), Rev34-47 (S34) (.smallcircle.), Rev-like peptide clone 24 (.quadrature.), clone 57 peptide (.circle-solid.), and clone 41 peptide (.diamond.).
Circular dichroism was used to assess whether the selected peptides adopted α-helical conformations. Circular dichroism spectra were measured using an Aviv model 62DS spectropolarimeter. Samples were prepared in 10 mM potassium phosphate buffer, pH 7.5 and 100 mM KF. Spectra were recorded using a 1 cm pathlength cuvette at 4° C. and signal was averaged for 5 sec at each wavelength. Scans were repeated five times and averaged.

[2] = test system: Nut^- (a Nut site deletion) reporter; assay: Antitermination assay (β-galactosidase reporter in E. coli), Nut^- reporter; type: cell-based, phage λ; parameters: key to X-gal: +++++, 200 units β-galactosidase/1 OD600 unit cells; ++++, 100-200 units; +++, 10-100 units; ++, 2-10 units; +, 1-10 units; -, background
Excerpt: (§1) Synthetic oligonucleotide cassettes encoding HIV Rev (ma[…]-aaaan) (SEQ ID NO: 26), BIV Tat (mg[…]gggn) (SEQ ID NO: 27), and HIV Tat ([…]) (SEQ ID NO: 28) peptides were cloned into the unique BsmI and NcoI sites of pBRptacN^* (Franklin, J. Mol Biol 231, 343 (1993)), creating fusion proteins at amino acid 20 of the λ N protein. The sequence encoding the fusion protein was linked to a tac promoter.
(§2) A second pACYC-derived vector was constructed encoding a tac promoter linked to the phage λ termination site Nut and a β-galactosidase structural gene. […]
(§3) Plasmids were transformed into E. coli strain N567 (Franklin & Doelling, J. Bacteriol. 171, 2513 (1989)) and bacteria were grown on LB plates or in tryptone broth containing 50 mg/l ampicillin and/or 15 mg/l chloramphenicol. In the β-galactosidase colony color assay, the number of +s represents visual estimation of blue intensity after growing colonies on plates containing 0.08 mg/ml X-gal and 0.024 mg/ml IPTG (to induce the tac promoters) for ~48 hr at 34° C. β-galactosidase activity was also measured in permeabilized cells using an ONPG colorimetric assay (Sambrook et al. Molecular Cloning (Cold Spring Harbor Laboratory Press, Cold Spring Harbor, 1989)). […]

[3] = test system: Nut reporter (λ Nut site, Box B); assay: Antitermination assay (β-galactosidase reporter in E. coli), Nut reporter; type: cell-based, phage λ
Excerpt: as §1, §2, §3

[4] = test system: HIV RRE; assay: Antitermination assay (β-galactosidase reporter in E. coli), HIV RRE reporter; type: cell-based; parameters: key to X-gal: +++++, 200 units β-galactosidase/1 OD600 unit cells; ++++, 100-200 units; +++, 10-100 units; ++, 2-10 units; +, 1-10 units; -, background; details: HIV RRE reporter (Table 1)
Excerpt: as §1, §2, §3

[5] = test system: BIV TAR; assay: Antitermination assay (β-galactosidase reporter in E. coli), BIV TAR reporter; type: cell-based; parameters: key to X-gal: +++++, 200 units β-galactosidase/1 OD600 unit cells; ++++, 100-200 units; +++, 10-100 units; ++, 2-10 units; +, 1-10 units; -, background; details: BIV TAR reporter (Table 1)
Excerpt: as §1, §2, §3

[6] = test system: HIV TAR; assay: Antitermination assay (β-galactosidase reporter in E. coli), HIV TAR reporter; type: cell-based; parameters: key to X-gal: +++++, 200 units β-galactosidase/1 OD600 unit cells; ++++, 100-200 units; +++, 10-100 units; ++, 2-10 units; +, 1-10 units; -, background
Excerpt: as §1, §2, §3

[7] = permeabilized cells, 1 hr IPTG induction
[8] = colony colour on X-gal/IPTG plates

## 14 amino acid wild-type Rev peptide: synthetic 14 amino acid Rev peptide, succinyl capped, four alanines and amide at the C-terminus
[1]
  helical content: 11%

B1: N: wild-type phage λ N antiterminator protein (protein, UniProt P03045 1-107, looked up)
Antitermination protein N: MDAQTRRRERRAEKQAQWKAANPLLVGVSAKPVNRPILSLNRKPKSRVESALNPIDLTVLAEYHKQIESNLQRIERKNQRTWYSKPGERGITCSGRQKIKGKSIPLI
[2]; colony colour on X-gal/IPTG plates ~48 hr at 34° C., E. coli N567
  X-gal: -
[2]; [7]
  ONPG: 1.9 units β-galactosidase/1 OD600
[3]; colony colour on X-gal/IPTG plates ~48 hr at 34° C.
  X-gal: +++++ (+++++, 200 units β-galactosidase/1 OD600 unit cells)
[3]; [7]
  ONPG: 1020 units β-galactosidase/1 OD600
[4]; [8]
  X-gal: -
[4]; permeabilized cells
  ONPG: 2.5 units β-galactosidase/1 OD600
[5]; [8]
  X-gal: -
[5]; permeabilized cells
  ONPG: 2.9 units β-galactosidase/1 OD600
[6]; [8]
  X-gal: -
[6]; permeabilized cells
  ONPG: 2.4 units β-galactosidase/1 OD600

Reference: patent publication US5834184A, “In vivo selection of RNA-binding peptides” (priority 1995, dated 1998)
